# Measured values from patent US10919943B2, “Mutant proteins enabling agrochemical control of plant gene expression” (The Regents of the University of California, priority 2016, dated 2021).
# Positions count from the first letter of the chain named. In names and notes the source's numbering stands.
# B1: G86A: PYR1 mutant (protein, UniProt O49686 1-191, looked up, variant G86A)
# Abscisic acid receptor PYR1: MPSELTPEERSELKNSIAEFHTYQLDPGSCSSLHAQRIHAPPELVWSIVRRFDKPQTYKHFIKSCSVEQNFEMRVGCTRDVIVISALPANTSTERLDILDDERRVTGFSIIGGEHRLTNYKSVTTVHRFEKENRIWTVVLESYVVDMPEGNSEDDTRMFADTVVKLNLQKLATVAEAMARNSGDGSGSQVT
# B2: G86L: PYR1 mutant (protein, UniProt O49686 1-191, looked up, variant G86L)
# Abscisic acid receptor PYR1: B1 Abscisic acid receptor PYR1 with A86L
# B3: G86M: PYR1 mutant (protein, UniProt O49686 1-191, looked up, variant G86M)
# Abscisic acid receptor PYR1: B1 Abscisic acid receptor PYR1 with A86M
# B4: G86N: PYR1 mutant (protein, UniProt O49686 1-191, looked up, variant G86N)
# Abscisic acid receptor PYR1: B1 Abscisic acid receptor PYR1 with A86N
# B5: G86P: PYR1 mutant (protein, UniProt O49686 1-191, looked up, variant G86P)
# Abscisic acid receptor PYR1: B1 Abscisic acid receptor PYR1 with A86P
# B6: G86Q: PYR1 mutant (protein, UniProt O49686 1-191, looked up, variant G86Q)
# Abscisic acid receptor PYR1: B1 Abscisic acid receptor PYR1 with A86Q
# B7: G86R: PYR1 mutant (protein, UniProt O49686 1-191, looked up, variant G86R)
# Abscisic acid receptor PYR1: B1 Abscisic acid receptor PYR1 with A86R
# B8: G86S: PYR1 mutant (protein, UniProt O49686 1-191, looked up, variant G86S)
# Abscisic acid receptor PYR1: B1 Abscisic acid receptor PYR1 with A86S
# B9: G86T: PYR1 mutant (protein, UniProt O49686 1-191, looked up, variant G86T)
# Abscisic acid receptor PYR1: B1 Abscisic acid receptor PYR1 with A86T
# B10: G86V: PYR1 mutant (protein, UniProt O49686 1-191, looked up, variant G86V)
# Abscisic acid receptor PYR1: B1 Abscisic acid receptor PYR1 with A86V
# B11: G86W: PYR1 mutant (protein, UniProt O49686 1-191, looked up, variant G86W)
# Abscisic acid receptor PYR1: B1 Abscisic acid receptor PYR1 with A86W
# B12: G86C: PYR1 mutant (protein, UniProt O49686 1-191, looked up, variant G86C)
# Abscisic acid receptor PYR1: B1 Abscisic acid receptor PYR1 with A86C
# B13: G86Y: PYR1 mutant (protein, UniProt O49686 1-191, looked up, variant G86Y)
# Abscisic acid receptor PYR1: B1 Abscisic acid receptor PYR1 with A86Y
# B14: G86D: PYR1 mutant (protein, UniProt O49686 1-191, looked up, variant G86D)
# Abscisic acid receptor PYR1: B1 Abscisic acid receptor PYR1 with A86D
# B15: G86E: PYR1 mutant (protein, UniProt O49686 1-191, looked up, variant G86E)
# Abscisic acid receptor PYR1: B1 Abscisic acid receptor PYR1 with A86E
# B16: G86F: PYR1 mutant (protein, UniProt O49686 1-191, looked up, variant G86F)
# Abscisic acid receptor PYR1: B1 Abscisic acid receptor PYR1 with A86F
# B17: G86H: PYR1 mutant (protein, UniProt O49686 1-191, looked up, variant G86H)
# Abscisic acid receptor PYR1: B1 Abscisic acid receptor PYR1 with A86H
# B18: G86I: PYR1 mutant (protein, UniProt O49686 1-191, looked up, variant G86I)
# Abscisic acid receptor PYR1: B1 Abscisic acid receptor PYR1 with A86I
# B19: G86K: PYR1 mutant (protein, UniProt O49686 1-191, looked up, variant G86K)
# Abscisic acid receptor PYR1: B1 Abscisic acid receptor PYR1 with A86K
# B20: L87A: PYR1 mutant (protein, UniProt O49686 1-191, looked up, variant L87A)
# Abscisic acid receptor PYR1: B1 Abscisic acid receptor PYR1 with A86G, L87A
# B21: L87N: PYR1 mutant (protein, UniProt O49686 1-191, looked up, variant L87N)
# Abscisic acid receptor PYR1: B1 Abscisic acid receptor PYR1 with A86G, L87N
# B22: L87Q: PYR1 mutant (protein, UniProt O49686 1-191, looked up, variant L87Q)
# Abscisic acid receptor PYR1: B1 Abscisic acid receptor PYR1 with A86G, L87Q
# B23: L87R: PYR1 mutant (protein, UniProt O49686 1-191, looked up, variant L87R)
# Abscisic acid receptor PYR1: B1 Abscisic acid receptor PYR1 with A86G, L87R
# B24: L87S: PYR1 mutant (protein, UniProt O49686 1-191, looked up, variant L87S)
# Abscisic acid receptor PYR1: B1 Abscisic acid receptor PYR1 with A86G, L87S
# B25: L87T: PYR1 mutant (protein, UniProt O49686 1-191, looked up, variant L87T)
# Abscisic acid receptor PYR1: B1 Abscisic acid receptor PYR1 with A86G, L87T
# B26: L87W: PYR1 mutant (protein, UniProt O49686 1-191, looked up, variant L87W)
# Abscisic acid receptor PYR1: B1 Abscisic acid receptor PYR1 with A86G, L87W
# B27: L87C: PYR1 mutant (protein, UniProt O49686 1-191, looked up, variant L87C)
# Abscisic acid receptor PYR1: B1 Abscisic acid receptor PYR1 with A86G, L87C
# B28: L87Y: PYR1 mutant (protein, UniProt O49686 1-191, looked up, variant L87Y)
# Abscisic acid receptor PYR1: B1 Abscisic acid receptor PYR1 with A86G, L87Y
# B29: L87D: PYR1 mutant (protein, UniProt O49686 1-191, looked up, variant L87D)
# Abscisic acid receptor PYR1: B1 Abscisic acid receptor PYR1 with A86G, L87D
# B30: L87E: PYR1 mutant (protein, UniProt O49686 1-191, looked up, variant L87E)
# Abscisic acid receptor PYR1: B1 Abscisic acid receptor PYR1 with A86G, L87E
# B31: L87G: PYR1 mutant (protein, UniProt O49686 1-191, looked up, variant L87G)
# Abscisic acid receptor PYR1: B1 Abscisic acid receptor PYR1 with A86G, L87G
# B32: L87H: PYR1 mutant (protein, UniProt O49686 1-191, looked up, variant L87H)
# Abscisic acid receptor PYR1: B1 Abscisic acid receptor PYR1 with A86G, L87H
# B33: L87K: PYR1 mutant (protein, UniProt O49686 1-191, looked up, variant L87K)
# Abscisic acid receptor PYR1: B1 Abscisic acid receptor PYR1 with A86G, L87K
# B34: P88L: PYR1 mutant (protein, UniProt O49686 1-191, looked up, variant P88L)
# Abscisic acid receptor PYR1: B1 Abscisic acid receptor PYR1 with A86G, P88L
# B35: P88M: PYR1 mutant (protein, UniProt O49686 1-191, looked up, variant P88M)
# Abscisic acid receptor PYR1: B1 Abscisic acid receptor PYR1 with A86G, P88M
# B36: P88N: PYR1 mutant (protein, UniProt O49686 1-191, looked up, variant P88N)
# Abscisic acid receptor PYR1: B1 Abscisic acid receptor PYR1 with A86G, P88N
# B37: P88Q: PYR1 mutant (protein, UniProt O49686 1-191, looked up, variant P88Q)
# Abscisic acid receptor PYR1: B1 Abscisic acid receptor PYR1 with A86G, P88Q
# B38: P88R: PYR1 mutant (protein, UniProt O49686 1-191, looked up, variant P88R)
# Abscisic acid receptor PYR1: B1 Abscisic acid receptor PYR1 with A86G, P88R
# B39: P88S: PYR1 mutant (protein, UniProt O49686 1-191, looked up, variant P88S)
# Abscisic acid receptor PYR1: B1 Abscisic acid receptor PYR1 with A86G, P88S
# B40: P88T: PYR1 mutant (protein, UniProt O49686 1-191, looked up, variant P88T)
# Abscisic acid receptor PYR1: B1 Abscisic acid receptor PYR1 with A86G, P88T
# B41: P88V: PYR1 mutant (protein, UniProt O49686 1-191, looked up, variant P88V)
# Abscisic acid receptor PYR1: B1 Abscisic acid receptor PYR1 with A86G, P88V
# Tested on: HAB1
# Assay: Yeast two hybrid of pBD-PYR1 site saturation mutants with pACT-HAB1 on 10 μM ABA, β-galactosidase staining
# Format: cell-based, Arabidopsis
# Parameters: key: x: Mutations in PYR1 that disrupt ABA-induced binding to PYR1 to HAB1
# Settings: S. cerevisiae Y190, 10 μM ABA; dead = lack of visible staining in comparison to wild type control
# Text: To systematically identify mutations in PYR1 that disrupt its binding to HAB1, we utilized a collection of saturating mutations that contain all possible single amino acid substitutions in 24 conserved interface residues involved in binding HAB1, which was previously constructed for the purpose of engineering constitutively active ABA receptor variants (Mosquna et al., 2011). The interface residues previously mutagenized in this collection are the following: H60, F61, I62, K63, I84, S85, G86, L87, P88, A89, H115, R116, L117, P148, G150, N151, D154, D155, T156, M158, F159, T162, L166, K170. This set was made by mutagenizing a pBD-PYR1 template that encodes a GAL4-DNA binding domain fusion to PYR1, which can be used to assess receptor-HAB1 binding in S. cerevisiae strains co-transformed with pACT-HAB1, which expresses a GAL4 activation domain fusion to HAB1. Mutant pBD-PYR1 clones from the collection are maintained in S. cerevisiae strain Y190 co-transformed with pACT-HAB1. The test strains were spotted onto agar plates containing synthetic dextrose dropout media lacking leucine and tryptophan [SD (-Leu, -Trp)] medium supplemented with 10 μM ABA. After incubating the test plates at 30° C. for two days, colonies were chloroform lysed and stained to reveal […] expression levels and “dead” mutants were defined by lack of visible staining in comparison to a wild type control. This effort defined 237 mutations that disrupt ABA-induced binding of PYR1 to HAB1 (Table 1). Premade yeast drop out supplements (Clontech) were utilized in this and other examples for media preparation, amino acids and other standard chemicals were purchased from Sigma-Aldrich (USA). The naturally occurring (+)-ABA isomer was used in all experiments and purchased from Biosynth Ag (Switzerland).
row,Molecule,Mutations in PYR1 that disrupt ABA-induced binding to PYR1 to HAB1
1,B1,x
2,B2,x
3,B3,x
4,B4,x
5,B5,x
6,B6,x
7,B7,x
8,B8,x
9,B9,x
10,B10,x
11,B11,x
12,B12,x
13,B13,x
14,B14,x
15,B15,x
16,B16,x
17,B17,x
18,B18,x
19,B19,x
20,B20,x
21,B21,x

row,Molecule,Mutations in PYR1 that disrupt ABA-induced binding to PYR1 to HAB1
1,B22,x
2,B23,x
3,B24,x
4,B25,x
5,B26,x
6,B27,x
7,B28,x
8,B29,x
9,B30,x
10,B31,x
11,B32,x
12,B33,x
13,B34,x
14,B35,x
15,B36,x
16,B37,x
17,B38,x
18,B39,x
19,B40,x
20,B41,x
